Results on three proteins are retold here after US20040054149.

In this data set the target is chondroitinase-treated bovine aggrecan, P13608.
Sequence of chondroitinase-treated bovine aggrecan, P13608 (P13608 17-2364): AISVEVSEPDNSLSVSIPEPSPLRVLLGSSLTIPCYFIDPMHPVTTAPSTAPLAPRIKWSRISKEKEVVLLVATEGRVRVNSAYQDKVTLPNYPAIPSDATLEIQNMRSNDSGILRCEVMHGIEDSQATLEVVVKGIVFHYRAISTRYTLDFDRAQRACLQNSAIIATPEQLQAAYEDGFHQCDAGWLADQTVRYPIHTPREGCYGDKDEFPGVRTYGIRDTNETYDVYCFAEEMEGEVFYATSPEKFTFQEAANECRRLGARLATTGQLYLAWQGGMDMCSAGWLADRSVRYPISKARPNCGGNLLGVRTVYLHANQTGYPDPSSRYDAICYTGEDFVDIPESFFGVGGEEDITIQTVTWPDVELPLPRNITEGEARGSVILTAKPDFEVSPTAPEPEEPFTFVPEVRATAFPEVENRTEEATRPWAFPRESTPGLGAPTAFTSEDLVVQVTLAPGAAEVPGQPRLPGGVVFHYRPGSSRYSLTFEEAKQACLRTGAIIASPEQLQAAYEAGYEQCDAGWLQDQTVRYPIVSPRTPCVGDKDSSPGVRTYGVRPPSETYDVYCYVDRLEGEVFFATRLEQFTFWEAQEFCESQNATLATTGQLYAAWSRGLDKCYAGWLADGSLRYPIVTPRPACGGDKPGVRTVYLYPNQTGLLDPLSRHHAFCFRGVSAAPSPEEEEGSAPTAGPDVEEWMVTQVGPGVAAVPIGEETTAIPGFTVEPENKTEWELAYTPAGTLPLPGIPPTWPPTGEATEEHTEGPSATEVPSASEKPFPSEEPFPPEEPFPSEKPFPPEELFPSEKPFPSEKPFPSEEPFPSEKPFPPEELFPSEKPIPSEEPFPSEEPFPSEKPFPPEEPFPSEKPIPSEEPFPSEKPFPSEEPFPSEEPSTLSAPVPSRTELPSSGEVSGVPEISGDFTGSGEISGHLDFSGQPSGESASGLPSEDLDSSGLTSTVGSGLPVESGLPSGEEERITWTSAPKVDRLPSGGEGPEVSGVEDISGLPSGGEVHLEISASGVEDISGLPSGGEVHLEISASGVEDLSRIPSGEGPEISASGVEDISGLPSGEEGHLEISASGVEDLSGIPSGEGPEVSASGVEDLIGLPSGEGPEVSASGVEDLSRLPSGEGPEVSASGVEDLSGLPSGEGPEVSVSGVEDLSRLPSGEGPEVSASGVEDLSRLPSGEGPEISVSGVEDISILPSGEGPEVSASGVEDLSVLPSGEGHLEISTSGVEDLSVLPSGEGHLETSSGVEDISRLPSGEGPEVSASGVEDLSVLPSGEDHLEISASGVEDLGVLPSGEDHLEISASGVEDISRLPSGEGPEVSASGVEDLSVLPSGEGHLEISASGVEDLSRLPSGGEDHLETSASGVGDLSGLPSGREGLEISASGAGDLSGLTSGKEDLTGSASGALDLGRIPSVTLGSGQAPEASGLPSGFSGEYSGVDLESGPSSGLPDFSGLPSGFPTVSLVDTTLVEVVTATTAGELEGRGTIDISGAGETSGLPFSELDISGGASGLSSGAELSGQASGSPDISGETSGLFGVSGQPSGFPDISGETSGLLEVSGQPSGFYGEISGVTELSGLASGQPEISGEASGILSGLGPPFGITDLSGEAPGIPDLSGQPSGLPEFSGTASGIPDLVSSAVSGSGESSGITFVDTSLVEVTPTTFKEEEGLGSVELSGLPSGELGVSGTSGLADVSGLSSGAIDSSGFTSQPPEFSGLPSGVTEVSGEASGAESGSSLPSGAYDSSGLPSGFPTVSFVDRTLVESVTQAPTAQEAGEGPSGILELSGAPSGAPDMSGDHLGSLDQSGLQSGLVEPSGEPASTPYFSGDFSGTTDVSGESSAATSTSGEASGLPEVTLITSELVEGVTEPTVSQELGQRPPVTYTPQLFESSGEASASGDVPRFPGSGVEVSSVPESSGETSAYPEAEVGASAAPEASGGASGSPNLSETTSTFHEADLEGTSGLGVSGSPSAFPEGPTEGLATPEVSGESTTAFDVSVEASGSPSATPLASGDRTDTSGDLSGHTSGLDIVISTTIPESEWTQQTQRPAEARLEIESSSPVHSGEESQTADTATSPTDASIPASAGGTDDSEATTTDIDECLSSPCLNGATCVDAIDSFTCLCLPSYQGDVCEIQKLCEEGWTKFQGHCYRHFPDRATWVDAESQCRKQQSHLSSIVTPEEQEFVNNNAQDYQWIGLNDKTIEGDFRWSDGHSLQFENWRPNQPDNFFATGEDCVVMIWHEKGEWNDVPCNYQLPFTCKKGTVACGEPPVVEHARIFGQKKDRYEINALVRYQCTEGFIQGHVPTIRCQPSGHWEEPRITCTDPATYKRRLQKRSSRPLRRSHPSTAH

B1: truncated aggrecanase-2 from amino acid #1 through amino acid #567 (protein)
chain: SISRARQVELLLVADASMARLYGRGLQHYLLTLASIANRLYSHASIENHIRLAVVKVVVLGDKDKSLEVSKNAATTLKNFCKWQHQHNQLGDDHEEHYDAAILFTREDLCGHHSCDTLGMADVGTICSPERSCAVIEDDGLHAAFTVAHEIGHLLGLSHDDSKFCEETFGSTEDKRLMSSILTSIDASKPWSKCTSATITEFLDDGHGNCLLDLPRKQILGPEELPGQTYDATQQCNLTFGPEYSVCPGMDVCARLWCAVVRQGQMVCLTKKLPAVEGTPCGKGRICLQGKCVDKTKKKYYSTSSH
Turning to B1, the “% aggrecan cleavage (3B3 ELISA assay)” value is “truncated aggrecanases of the invention having one or both TSP domains deleted are biologically active”.

B2: truncated aggrecanase-2 from amino acid #1 through amino acid #628 (protein)
chain: SISRARQVELLLVADASMARLYGRGLQHYLLTLASIANRLYSHASIENHIRLAVVKVVVLGDKDKSLEVSKNAATTLKNFCKWQHQHNQLGDDHEEHYDAAILFTREDLCGHHSCDTLGMADVGTICSPERSCAVIEDDGLHAAFTVAHEIGHLLGLSHDDSKFCEETFGSTEDKRLMSSILTSIDASKPWSKCTSATITEFLDDGHGNCLLDLPRKQILGPEELPGQTYDATQQCNLTFGPEYSVCPGMDVCARLWCAVVRQGQMVCLTKKLPAVEGTPCGKGRICLQGKCVDKTKKKYYSTSSHGNWGSWGSWGQCSRSCGGGVQFAYRHCNNPAPRNNGRYCTGKRAIYRSCSLMPCPPNGKSF
For B2, the “% aggrecan cleavage (3B3 ELISA assay)” value was “truncated aggrecanases of the invention having one or both TSP domains deleted are biologically active”.

B3: ADAMTS-5 active site mutant (E411-Q411) (protein)
chain: SISRARQVELLLVADASMARLYGRGLQHYLLTLASIANRLYSHASIENHIRLAVVKVVVLGDKDKSLEVSKNAATTLKNFCKWQHQHNQLGDDHEEHYDAAILFTREDLCGHHSCDTLGMADVGTICSPERSCAVIEDDGLHAAFTVAHQIGHLLGLSHDDSKFCEETFGSTEDKRLMSSILTSIDASKPWSKCTSATITEFLDDGHGNCLLDLPRKQILGPEELPGQTYDATQQCNLTFGPEYSVCPGMDVCARLWCAVVRQGQMVCLTKKLPAVEGTPCGKGRICLQGKCVDKTKKKYYSTSSHGNWGSWGSWGQCSRSCGGGVQFAYRHCNNPAPRNNGRYCTGKRAIYRSCSLMPCPPNGKSFRHEQCEAKNGYQSDAKGVKTFVEWVPKYAGVLPADVCKLTCRAKGTGYYVVFSPKVTDGTECRPYSNSVCVRGKCVRTGCDGIIGSKLQYDKCGVCGGDNSSCTKIVGTFNKKSKGYTDVVRIPEGATHIKVRQFKAKDQTRFTAYLALKKKNGEYLINGKYMISTSETIIDINGTVMNYSGWSHRDDFLHGMGYSATKEILIVQILATDPTKPLDVRYSFFVPKKSTPKVNSVTSHGSNKVGSHTSQPQWVTGPWLACSRTCDTGWHTRTVQCQDGNRKLAKGCPLSQRPSAFKQCLLKKC
Regarding B3, the “aggrecanase activity (ELISA)” value was “lacked aggrecanase activity as shown by ELISA (FIG. 16)”.
